# Patent publication US20220064221A1, “BICYCLIC PEPTIDE LIGANDS SPECIFIC FOR INTEGRIN ALPHA-V-BETA-3” (BicycleTx Limited, priority 2019, published 2022)
# Starred links: 1 amine or outer side, 2 acyl side, 3 side chain; linkers in the order of their positions; H or OH if unused. Positions of bridges follow the written chain, without caps; N, C: chain ends. Non-standard residues stand in square brackets, D forms with d. No end group written: not given here. *: point of attachment. FITC = O=C1OC2(c3ccc(O)cc3Oc3cc(O)ccc32)c2ccc(NC(=S)*)cc21; TATA = O=C(CC[*:1])N1CN(C(=O)CC[*:2])CN(C(=O)CC[*:3])C1; Ahx = NCCCCCC(=O)O; Fl = fluorescein; Sar = CNCC(=O)O
# Columns and labels:
# [1] = molecular target: integrin αvβ3 (Homo sapiens, UniProt P05106+P06756); experiment: Human FP direct binding assay; details: Table 3; fluorescently modified peptides; Integrin aVb3
# Description: (§1) Affinity of selected fluorescently modified peptides of the invention for integrin αvβ3 (Kd) (and αvβ5 to test for selectivity) was determined using a human direct binding assay analogous to that described in Schottelius et al. (2009) Acc. Chem. Res. 42, 969-980.
# [2] = molecular target: T1, integrin αvβ3 (human, UniProt P06756 31-992; P05106 27-718); experiment: Human FP Direct binding
# T1 construct: also called Integrin aVb3
# Description: as §1
# T1 sequence (P06756 31-992, chain 1 of 2): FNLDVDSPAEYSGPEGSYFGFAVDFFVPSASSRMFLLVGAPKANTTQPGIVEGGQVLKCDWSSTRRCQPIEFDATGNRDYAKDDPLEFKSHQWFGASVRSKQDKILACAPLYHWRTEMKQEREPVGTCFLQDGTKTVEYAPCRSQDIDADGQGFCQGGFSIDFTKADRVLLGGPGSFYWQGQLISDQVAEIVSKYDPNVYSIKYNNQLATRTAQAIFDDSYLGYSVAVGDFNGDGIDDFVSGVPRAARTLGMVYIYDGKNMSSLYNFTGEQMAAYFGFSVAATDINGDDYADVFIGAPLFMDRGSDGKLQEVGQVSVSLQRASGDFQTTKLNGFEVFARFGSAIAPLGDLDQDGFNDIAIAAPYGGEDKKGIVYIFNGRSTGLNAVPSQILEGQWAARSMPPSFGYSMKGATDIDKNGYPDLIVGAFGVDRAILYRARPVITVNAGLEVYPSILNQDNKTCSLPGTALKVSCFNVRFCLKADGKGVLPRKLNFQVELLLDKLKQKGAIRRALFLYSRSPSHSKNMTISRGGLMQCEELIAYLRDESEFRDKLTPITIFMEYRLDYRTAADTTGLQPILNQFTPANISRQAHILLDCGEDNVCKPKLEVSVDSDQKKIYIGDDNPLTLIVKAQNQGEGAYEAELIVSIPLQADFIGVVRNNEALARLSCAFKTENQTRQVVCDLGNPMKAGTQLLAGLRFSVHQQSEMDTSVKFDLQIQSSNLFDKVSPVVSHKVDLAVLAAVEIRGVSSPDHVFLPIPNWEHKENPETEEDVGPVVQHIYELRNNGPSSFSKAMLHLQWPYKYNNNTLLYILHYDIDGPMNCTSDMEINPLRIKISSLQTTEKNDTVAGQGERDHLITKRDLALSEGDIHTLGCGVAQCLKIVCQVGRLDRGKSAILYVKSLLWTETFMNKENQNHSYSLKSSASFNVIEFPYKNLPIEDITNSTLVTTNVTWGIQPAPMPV
# T1 sequence (P05106 27-718, chain 2 of 2): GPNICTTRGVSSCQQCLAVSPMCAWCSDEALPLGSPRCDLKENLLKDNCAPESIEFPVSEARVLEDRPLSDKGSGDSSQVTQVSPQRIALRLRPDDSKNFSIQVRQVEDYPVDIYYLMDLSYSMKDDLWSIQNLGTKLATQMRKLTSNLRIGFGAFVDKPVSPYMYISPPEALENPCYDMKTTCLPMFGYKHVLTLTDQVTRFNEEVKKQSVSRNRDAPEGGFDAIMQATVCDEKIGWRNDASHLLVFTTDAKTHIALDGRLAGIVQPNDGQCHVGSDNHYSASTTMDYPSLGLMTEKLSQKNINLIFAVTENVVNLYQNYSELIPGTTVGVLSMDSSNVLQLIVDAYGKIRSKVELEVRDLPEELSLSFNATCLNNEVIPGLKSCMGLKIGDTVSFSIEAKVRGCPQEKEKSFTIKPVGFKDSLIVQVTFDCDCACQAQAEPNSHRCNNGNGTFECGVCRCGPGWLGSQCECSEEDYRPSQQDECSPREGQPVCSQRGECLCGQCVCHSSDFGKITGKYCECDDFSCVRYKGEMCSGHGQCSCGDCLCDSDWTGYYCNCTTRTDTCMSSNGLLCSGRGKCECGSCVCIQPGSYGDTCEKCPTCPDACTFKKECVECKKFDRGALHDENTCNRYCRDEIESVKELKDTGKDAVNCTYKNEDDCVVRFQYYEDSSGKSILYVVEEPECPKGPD
# integrin αvβ3 (Homo sapiens, UniProt P05106+P06756), sequence (P06756 31-889 limits assumed): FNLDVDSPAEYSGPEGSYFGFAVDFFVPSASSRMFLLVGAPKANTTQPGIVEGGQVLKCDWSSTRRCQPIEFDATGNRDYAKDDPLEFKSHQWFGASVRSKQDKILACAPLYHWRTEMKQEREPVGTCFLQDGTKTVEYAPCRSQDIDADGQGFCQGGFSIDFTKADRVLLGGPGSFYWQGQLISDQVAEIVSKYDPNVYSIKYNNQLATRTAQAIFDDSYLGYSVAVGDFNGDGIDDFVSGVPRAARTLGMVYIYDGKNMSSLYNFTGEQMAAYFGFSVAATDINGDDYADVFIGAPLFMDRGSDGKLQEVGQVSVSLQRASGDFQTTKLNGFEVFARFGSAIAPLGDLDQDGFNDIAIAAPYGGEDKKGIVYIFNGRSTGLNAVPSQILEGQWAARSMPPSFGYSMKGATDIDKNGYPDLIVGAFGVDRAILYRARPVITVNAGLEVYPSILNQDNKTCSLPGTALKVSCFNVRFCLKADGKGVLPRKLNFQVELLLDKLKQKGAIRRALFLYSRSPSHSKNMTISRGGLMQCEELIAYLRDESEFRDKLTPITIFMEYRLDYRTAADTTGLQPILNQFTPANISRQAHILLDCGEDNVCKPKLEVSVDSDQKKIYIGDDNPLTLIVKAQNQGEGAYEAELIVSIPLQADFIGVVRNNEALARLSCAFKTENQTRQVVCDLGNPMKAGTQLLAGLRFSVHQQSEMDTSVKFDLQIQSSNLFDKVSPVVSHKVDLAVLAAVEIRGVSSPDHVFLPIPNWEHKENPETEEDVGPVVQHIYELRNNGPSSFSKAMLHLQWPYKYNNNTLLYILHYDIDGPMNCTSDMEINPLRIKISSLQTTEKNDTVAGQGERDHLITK
# integrin αvβ3 (Homo sapiens, UniProt P05106+P06756), sequence (P06756 891-1048 partner limits assumed): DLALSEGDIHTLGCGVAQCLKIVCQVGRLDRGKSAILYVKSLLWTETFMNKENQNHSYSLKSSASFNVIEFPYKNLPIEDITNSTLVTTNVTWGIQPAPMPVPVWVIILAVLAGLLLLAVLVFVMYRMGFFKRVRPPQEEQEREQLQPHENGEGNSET
# integrin αvβ3 (Homo sapiens, UniProt P05106+P06756), sequence (P05106 27-788): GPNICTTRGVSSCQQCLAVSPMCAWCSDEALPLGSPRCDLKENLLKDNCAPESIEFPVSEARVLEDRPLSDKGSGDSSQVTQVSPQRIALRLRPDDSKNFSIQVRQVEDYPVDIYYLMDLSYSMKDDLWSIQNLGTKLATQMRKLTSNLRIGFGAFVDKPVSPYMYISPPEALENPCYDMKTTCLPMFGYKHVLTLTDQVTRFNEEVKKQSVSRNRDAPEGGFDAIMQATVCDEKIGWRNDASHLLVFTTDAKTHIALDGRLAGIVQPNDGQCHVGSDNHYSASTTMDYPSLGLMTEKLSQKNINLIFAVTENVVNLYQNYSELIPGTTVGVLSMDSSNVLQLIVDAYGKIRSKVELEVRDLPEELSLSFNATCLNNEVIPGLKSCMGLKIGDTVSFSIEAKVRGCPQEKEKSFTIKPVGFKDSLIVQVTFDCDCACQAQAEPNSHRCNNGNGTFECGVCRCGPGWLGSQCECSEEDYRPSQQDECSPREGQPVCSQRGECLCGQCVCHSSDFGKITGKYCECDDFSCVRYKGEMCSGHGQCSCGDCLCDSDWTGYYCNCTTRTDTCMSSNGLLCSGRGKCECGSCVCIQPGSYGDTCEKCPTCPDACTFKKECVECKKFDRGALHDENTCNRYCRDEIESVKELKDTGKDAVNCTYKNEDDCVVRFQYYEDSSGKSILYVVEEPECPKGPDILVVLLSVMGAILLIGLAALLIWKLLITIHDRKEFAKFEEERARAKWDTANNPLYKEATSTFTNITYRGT
Molecule,Kd [1],Kd [2]
{FITC-Ahx}-GRGSSP [BCY7766],1.15 nM,
Ac-CPHIGRTDCPPCA[Sar][Sar][Sar][Sar][Sar][Sar]K(Fl) (linker 1-9-12 via TATA) [BCY7508],,0.05 nM
{FITC-Ahx}-GRGSSP (also called FITC-Ahx-GRGSSP) [BCY7766],,1.15 nM
